Assay results published in paper doi:10.1101/2024.09.22.614354 (bioRxiv, 2024).
Substitutions are numbered along the chain they refer to. Names may count otherwise. Read-outs that look alike come from different tables or passages of the source. Where no end group is shown, it is not given here. TMR = tetramethyl rhodamine dye

T1: wild type Rb pocket domain (Rb^P) (human, UniProt P06400 380-788)
T1 sequence: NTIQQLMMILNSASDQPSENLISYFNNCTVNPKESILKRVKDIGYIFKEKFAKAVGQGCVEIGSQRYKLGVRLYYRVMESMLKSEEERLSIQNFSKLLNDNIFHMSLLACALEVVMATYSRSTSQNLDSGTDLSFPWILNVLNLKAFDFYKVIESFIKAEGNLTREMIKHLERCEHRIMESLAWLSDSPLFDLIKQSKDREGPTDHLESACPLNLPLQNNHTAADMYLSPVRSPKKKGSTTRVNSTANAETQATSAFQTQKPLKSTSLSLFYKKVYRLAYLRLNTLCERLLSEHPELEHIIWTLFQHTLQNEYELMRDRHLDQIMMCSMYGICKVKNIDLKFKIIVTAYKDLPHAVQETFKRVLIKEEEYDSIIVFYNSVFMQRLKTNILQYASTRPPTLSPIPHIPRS

T2: Rb^P M704V (human, UniProt P06400 380-788, M704V)
T2 sequence: T1 sequence with M325V

T3: Rb^P E554K (human, UniProt P06400 380-788, E554K)
T3 sequence: T1 sequence with E175K

T4: Rb^P S751Y (human, UniProt P06400 380-788, S751Y)
T4 sequence: T1 sequence with S372Y

B1: Rb^P E533K (domain or fragment)
chain: T1 sequence with E154K
B2: Rb^P K530I (domain or fragment)
chain: T1 sequence with K151I
B3: Rb^P H555Y (domain or fragment)
chain: T1 sequence with H176Y
B4: Rb^P K548N (domain or fragment)
chain: T1 sequence with K169N
B5: Rb^P I703F (domain or fragment)
chain: T1 sequence with I324F
B6: Rb^P S474I (domain or fragment)
chain: T1 sequence with S95I
B7: Rb^P S474R (domain or fragment)
chain: T1 sequence with S95R
B8: Rb^P R656Q (domain or fragment)
chain: T1 sequence with R277Q
B9: TMR-E2F1^TD (peptide of the E2F1 transactivation domain, N-labeled with tetramethyl rhodamine) (peptide)
peptide: {TMR}-GEGIRDLFDCDFGDLTPLD
B10: Rb^P S534R (domain or fragment)
chain: T1 sequence with S155R

Assays:
Assay in all cases: fluorescence polarisation
[1] = target: TMR-E2F1^TD (peptide of the E2F1 transactivation domain, N-labeled with tetramethyl rhodamine)
[2] = target: B9
[3] = target: B9
[4] = target: T1, wild type Rb pocket domain (Rb^P)
Rb^P I703F = target: B5
Rb^P M704V = target: T2, Rb^P M704V
Rb^P E554K = target: T3, Rb^P E554K
Rb^P S751Y = target: T4, Rb^P S751Y
[5] = target: T1, wild type Rb pocket domain (Rb^P); remark: listed apart in the source
[6] = target: T1, wild type Rb pocket domain (Rb^P); remark: listed apart in the source

Rb^P E544K (from UniProt P06400 380-788) (domain or fragment)
fold weaker binding relative to wild type [1]: 34 fold

B1
fold weaker binding relative to wild type [2]: 59 fold

B2
fold weaker binding relative to wild type [2]: 63 fold

B3
fold weaker binding relative to wild type [2]: 12 fold

B4
fold weaker binding relative to wild type [2]: 10 fold

B5
fold weaker binding at 37°C than at 25°C [3]: 6 fold | fold weaker binding relative to wild type [3]: 17 fold | fold weaker binding relative to wild type [2]: ~5 fold

B6
fold weaker binding relative to wild type [2]: 27 fold

B7
fold weaker binding relative to wild type [2]: 27 fold

B8
fold weaker binding relative to wild type [2]: 13 fold

B9
Kd [4]: 17 nM | Kd (Rb^P I703F): 94 nM | Kd (Rb^P M704V): 46 nM | Kd (Rb^P E554K): 1740 nM | Kd (Rb^P S751Y): 28 nM | Kd [5]: 22 nM | Kd [6]: 14 nM

B10
fold weaker binding relative to wild type [2]: 820 fold
